Source: publication PMC3415457, “Cohesin Rings Devoid of Scc3 and Pds5 Maintain Their Stable Association with the DNA” (PLoS Genetics, 2012)

T1: GST fused to the N-terminal region (aa 1–168) of Scc1 (Saccharomyces cerevisiae (strain ATCC …, UniProt Q12158))
T1 chain: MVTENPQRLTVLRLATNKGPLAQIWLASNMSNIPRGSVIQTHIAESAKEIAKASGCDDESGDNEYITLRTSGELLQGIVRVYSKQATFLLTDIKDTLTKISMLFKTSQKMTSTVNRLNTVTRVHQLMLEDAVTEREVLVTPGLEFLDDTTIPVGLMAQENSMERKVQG

T2: Pds5, recombinant, His6-tagged (S. cerevisiae (budding yeast), UniProt Q04264 1-1277)
T2 construct: also called His6-tagged Pds5; source: E. coli BL21 (DE3) RIL, purified (Ni-NTA, gel filtration); not shown: His6, C-terminal, kept
T2 sequence (looked up): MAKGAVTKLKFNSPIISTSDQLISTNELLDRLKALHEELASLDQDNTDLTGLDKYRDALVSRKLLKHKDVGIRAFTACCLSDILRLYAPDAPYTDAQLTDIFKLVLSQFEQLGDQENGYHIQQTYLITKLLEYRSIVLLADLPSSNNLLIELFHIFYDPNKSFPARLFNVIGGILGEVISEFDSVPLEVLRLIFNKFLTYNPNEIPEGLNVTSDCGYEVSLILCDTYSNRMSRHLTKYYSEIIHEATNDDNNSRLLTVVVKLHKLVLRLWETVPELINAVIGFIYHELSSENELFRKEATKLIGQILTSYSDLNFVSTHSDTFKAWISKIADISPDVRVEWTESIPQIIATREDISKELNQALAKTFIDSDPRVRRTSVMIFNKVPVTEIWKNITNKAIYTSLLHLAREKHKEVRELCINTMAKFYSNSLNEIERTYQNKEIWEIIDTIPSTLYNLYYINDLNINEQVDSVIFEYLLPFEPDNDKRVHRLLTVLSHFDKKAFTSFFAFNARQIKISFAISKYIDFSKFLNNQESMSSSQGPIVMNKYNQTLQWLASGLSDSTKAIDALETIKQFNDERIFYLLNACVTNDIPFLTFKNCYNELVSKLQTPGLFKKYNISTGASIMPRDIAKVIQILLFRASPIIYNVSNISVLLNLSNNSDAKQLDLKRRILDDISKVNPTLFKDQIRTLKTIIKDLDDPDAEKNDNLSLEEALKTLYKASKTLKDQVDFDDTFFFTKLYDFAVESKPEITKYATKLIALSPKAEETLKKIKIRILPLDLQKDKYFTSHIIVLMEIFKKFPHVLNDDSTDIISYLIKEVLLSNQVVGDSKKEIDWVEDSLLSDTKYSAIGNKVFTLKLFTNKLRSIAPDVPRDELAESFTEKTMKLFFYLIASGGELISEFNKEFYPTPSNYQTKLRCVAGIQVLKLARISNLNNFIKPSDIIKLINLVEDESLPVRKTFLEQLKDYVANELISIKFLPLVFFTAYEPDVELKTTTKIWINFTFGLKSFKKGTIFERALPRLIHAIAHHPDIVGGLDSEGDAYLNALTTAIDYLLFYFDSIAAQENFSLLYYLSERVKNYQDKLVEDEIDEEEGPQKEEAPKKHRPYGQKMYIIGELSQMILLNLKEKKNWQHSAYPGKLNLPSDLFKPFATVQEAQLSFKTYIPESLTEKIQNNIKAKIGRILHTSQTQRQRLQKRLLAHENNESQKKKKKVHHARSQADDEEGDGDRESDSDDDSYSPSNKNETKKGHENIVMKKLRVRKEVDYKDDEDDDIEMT

T3: GST fused to the C-terminal region (aa 338–566) of Scc1 (Saccharomyces cerevisiae (strain ATCC …, UniProt Q12158))
T3 chain: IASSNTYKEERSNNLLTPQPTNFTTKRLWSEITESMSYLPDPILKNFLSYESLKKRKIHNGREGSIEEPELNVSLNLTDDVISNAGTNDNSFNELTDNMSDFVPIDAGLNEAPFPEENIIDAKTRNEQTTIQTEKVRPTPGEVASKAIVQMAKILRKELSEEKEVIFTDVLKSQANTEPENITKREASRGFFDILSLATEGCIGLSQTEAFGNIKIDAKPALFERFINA

T4: Scc3, recombinant, His6-tagged (S. cerevisiae (budding yeast), UniProt P40541 1-1150)
T4 construct: also called His6-tagged Scc3; source: E. coli BL21 (DE3) RIL, purified (Ni-NTA, gel filtration); not shown: His6, C-terminal, kept
T4 sequence (looked up): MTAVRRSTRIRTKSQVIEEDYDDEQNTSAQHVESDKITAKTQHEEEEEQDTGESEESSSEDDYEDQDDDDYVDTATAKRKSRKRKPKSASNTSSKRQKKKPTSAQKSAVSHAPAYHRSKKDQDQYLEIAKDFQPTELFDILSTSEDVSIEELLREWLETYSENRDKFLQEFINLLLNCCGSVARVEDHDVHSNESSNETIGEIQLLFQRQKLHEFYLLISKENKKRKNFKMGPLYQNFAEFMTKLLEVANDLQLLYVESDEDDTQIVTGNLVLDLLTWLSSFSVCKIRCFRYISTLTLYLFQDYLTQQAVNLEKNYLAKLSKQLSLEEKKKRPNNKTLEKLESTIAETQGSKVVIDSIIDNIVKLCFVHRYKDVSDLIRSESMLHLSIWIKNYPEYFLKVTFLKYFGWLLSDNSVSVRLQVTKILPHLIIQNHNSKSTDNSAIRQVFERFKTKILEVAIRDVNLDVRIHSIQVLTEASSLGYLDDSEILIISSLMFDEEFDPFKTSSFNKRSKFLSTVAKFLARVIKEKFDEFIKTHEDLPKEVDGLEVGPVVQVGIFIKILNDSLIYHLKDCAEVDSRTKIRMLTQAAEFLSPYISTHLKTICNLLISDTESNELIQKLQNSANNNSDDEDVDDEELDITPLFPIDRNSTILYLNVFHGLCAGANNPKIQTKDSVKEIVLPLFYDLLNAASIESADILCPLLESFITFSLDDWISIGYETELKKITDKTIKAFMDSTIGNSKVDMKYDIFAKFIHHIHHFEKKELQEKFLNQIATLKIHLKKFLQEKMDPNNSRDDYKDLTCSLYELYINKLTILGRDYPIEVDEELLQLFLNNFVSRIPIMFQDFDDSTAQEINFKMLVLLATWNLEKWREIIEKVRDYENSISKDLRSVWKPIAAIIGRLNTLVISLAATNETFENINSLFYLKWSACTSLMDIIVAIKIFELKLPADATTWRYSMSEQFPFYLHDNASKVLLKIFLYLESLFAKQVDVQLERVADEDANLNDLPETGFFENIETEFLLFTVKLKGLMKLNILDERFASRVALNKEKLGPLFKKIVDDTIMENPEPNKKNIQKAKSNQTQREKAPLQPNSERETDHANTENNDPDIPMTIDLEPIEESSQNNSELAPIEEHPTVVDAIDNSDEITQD

B1: Wpl1, recombinant, His6-tagged (natural protein, S. cerevisiae (budding yeast), UniProt Q99359 1-647, looked up)
chain: MRAYGKRGPVLRTPFRSNKGLPSSSDVEFSDDDVNSVIPDVSSTISSSIADHPIEGLLDEPRKAQDSSSSFDGANEKPSSQLDSKRNDQNVKIITSSDTSMAFMKDEKLSAFNFLDGSKASKRKRRRTYQKHDANITSSIEPDVQDEDSITMHNEFESIRKIYNDINEFILKLPRADDDILNKMLENEMKMDDSIENNSIRTSKDKKYGKFRTILINKNKENEIMGEEVDQKANTLSLNNADNSNAEKEGLTSTNHYNELKNMGDTIKYQDDIEFLLSNSKSNDNTTVPINEYFKKLLNLSLMIINDEEFFQYAKRYFKKEIIKLSFAQFRSDFPELILLQGYLLHKVSESQSDFPPSFDNFSIELSKDDGKIRTKKNKHIKKLSHLNFEDFLRKTQFKTGLYYSLSLWEMHGNLSLDIIKRISILASNKDLFSRHVKTFIPLLEKLITASEFCHMYIEQPEMFDSLISNLNNQFKDMLDDDSLIKILILLTNMEVHNYTLWKEADMIFQSSMNTILESIHPLTDAKVDNILLHLGLCLNICSRENSRLKLDGKLWYDMKTIFVKMIRDGSDTENRLVQGLFYLNFSFLIKQRKENSNLDPGELNLLLVELEAFKSETSQFNEGISNKIEIALNYLKSIYTSERITI
notes: also called Rad61; His6-tagged Wpl1; source: E. coli BL21 (DE3) RIL, purified (Ni-NTA, gel filtration); not shown: His6, C-terminal, kept
B2: GST fused to the C-terminal region (aa 338–566) of Scc1 (domain or fragment, S. cerevisiae (budding yeast), UniProt Q12158 338-566, looked up)
chain: T3 chain
notes: Scc1 of budding yeast, C-terminal region, aa 338–566; The methods' sentence on C-terminal His6 tags follows the list of constructs; whether it also holds for the GST fusions is not clear; also called C-terminal part of Scc1; Scc1 C-terminus
B3: GST fused to the N-terminal region (aa 1–168) of Scc1 (domain or fragment, S. cerevisiae (budding yeast), UniProt Q12158 1-168, looked up)
chain: T1 chain
notes: Scc1 of budding yeast, N-terminal region, aa 1–168; The methods' sentence on C-terminal His6 tags follows the list of constructs; whether it also holds for the GST fusions is not clear; also called N-terminal region of Scc1; Scc1 N-terminus

Tests used:
[1] = target: T1, GST fused to the N-terminal region (aa …); test: GST pull-down; Pds5 present: Wpl1 bound as Pds5/Wpl1 complex (Wpl1, Scc3 and Pds5 premixed); direct Wpl1-Scc1 binding alone not reported in text
[2] = target: T2, Pds5, recombinant, His6-tagged; test: co-sedimentation; 10–30% glycerol gradient; 10 mM HEPES-KOH pH 7.5, 75 mM NaCl, 0.25 mM EDTA; proteins mixed and preincubated 1 h at 4°C; 38000 rpm, 38 h, 4°C, SW40 Ti; fractions on Coomassie-stained SDS-PAGE; settings: both partners purified
[3] = target: T3, GST fused to the C-terminal region (aa …); test: GST pull-down; Scc3 present: Wpl1 bound as Scc3/Wpl1 complex (Wpl1, Scc3 and Pds5 premixed); direct Wpl1-Scc1 binding alone not reported in text
[4] = target: B1; test: pull-down; GST fusions of Scc1 regions on glutathione-agarose beads; His6-tagged Wpl1, Scc3 and Pds5 mixed together and pre-incubated 30 min at 4°C, then with beads 2 h at 4°C; 20 mM HEPES pH 7.5, 100 mM NaCl, 5% glycerol, 5 mM 2-mercaptoethanol; washes with 0.5% NP-40; Western blot with Penta-His antibody; settings: both partners purified
[5] = target: T4, Scc3, recombinant, His6-tagged; test: as above; settings: both partners purified
[6] = target: T2, Pds5, recombinant, His6-tagged; test: as above; settings: both partners purified

Row | Binder | binding result [1] | binding result [2] | binding result [3] | binding result [4] | binding result [5] | binding result [6]
1 | B1 | binds | binds | binds | – | – | –
2 | B2 | – | – | – | binds | binds | –
3 | B3 | – | – | – | binds | – | binds
